Results taken from paper PMC9482650, “Quantitative fragmentomics allow affinity mapping of interactomes” (Nature Communications, 2022).

Target: T1, ARHGAP21, Q5T5U3
T1 sequence (Q5T5U3 45-169, limits assumed, looked up): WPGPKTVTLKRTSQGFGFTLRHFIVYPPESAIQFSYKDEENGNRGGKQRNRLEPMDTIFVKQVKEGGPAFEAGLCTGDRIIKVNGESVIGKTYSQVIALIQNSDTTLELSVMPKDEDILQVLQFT
Experiment: holdup assay
Design: key: below the threshold = too weak to quantify, mostly under pKd 3.1 to 4
Conditions: plain residues with an end cap or a label only (N-terminal biotin on a linker: ado-ado)

How did the pKd turn out when PTPDLPQTRV [KLHDC7A, Q5VTJ3] was run?
Its pKd is “below the threshold”.

Target: T2, MPDZ_5, O75970
T2 sequence (O75970 695-796, limits assumed, looked up): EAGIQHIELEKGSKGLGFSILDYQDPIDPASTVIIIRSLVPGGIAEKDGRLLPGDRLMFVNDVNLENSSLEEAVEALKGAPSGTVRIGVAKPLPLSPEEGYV
Experiment: holdup assay
Design: key: below the threshold = too weak to quantify, mostly under pKd 3.1 to 4
Conditions: plain residues with an end cap or a label only (N-terminal biotin on a linker: ado-ado)

With PTPDLPQTRV [KLHDC7A, Q5VTJ3] as the binder, how does the pKd read?
Its pKd is “below the threshold”.

Target: T3, MPDZ_10, O75970
T3 sequence (O75970 1624-1722, limits assumed, looked up): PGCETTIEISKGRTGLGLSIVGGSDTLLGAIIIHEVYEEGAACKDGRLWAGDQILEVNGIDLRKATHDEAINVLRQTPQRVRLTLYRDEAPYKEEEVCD
Experiment: holdup assay
Design: key: below the threshold = too weak to quantify, mostly under pKd 3.1 to 4
Conditions: plain residues with an end cap or a label only (N-terminal biotin on a linker: ado-ado)

For PTPDLPQTRV [KLHDC7A, Q5VTJ3], which pKd is on record?
The pKd was 3.52.

Target: PICK1, Q9NRD5
Sequence (Q9NRD5 17-115): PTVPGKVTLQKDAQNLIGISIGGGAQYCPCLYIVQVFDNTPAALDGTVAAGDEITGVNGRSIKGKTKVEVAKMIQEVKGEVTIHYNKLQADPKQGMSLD
Experiment: holdup assay
Design: key: below the threshold = too weak to quantify, mostly under pKd 3.1 to 4
Conditions: plain residues with an end cap or a label only (N-terminal biotin on a linker: ado-ado)

How did the pKd turn out when PTPDLPQTRV [KLHDC7A, Q5VTJ3] was run?
Its pKd is 4.18.

Target: T4, DLG3_3, Q92796
T4 sequence (Q92796 374-475, limits assumed, looked up): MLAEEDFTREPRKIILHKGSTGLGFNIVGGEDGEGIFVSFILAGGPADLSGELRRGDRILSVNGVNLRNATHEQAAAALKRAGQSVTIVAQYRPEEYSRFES
Experiment: holdup assay
Design: key: below the threshold = too weak to quantify, mostly under pKd 3.1 to 4
Conditions: plain residues with an end cap or a label only (N-terminal biotin on a linker: ado-ado)

Which pKd does the source give for PTPDLPQTRV [KLHDC7A, Q5VTJ3] here?
The pKd was “below the threshold”.

Target: PARD3_3, Q8TEW0
Sequence (Q8TEW0 582-685): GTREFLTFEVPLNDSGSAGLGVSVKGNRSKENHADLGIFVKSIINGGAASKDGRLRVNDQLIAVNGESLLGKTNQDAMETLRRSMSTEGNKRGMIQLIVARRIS
Experiment: holdup assay
Design: key: below the threshold = too weak to quantify, mostly under pKd 3.1 to 4
Conditions: plain residues with an end cap or a label only (N-terminal biotin on a linker: ado-ado)

How did the pKd turn out when PTPDLPQTRV [KLHDC7A, Q5VTJ3] was run?
Its pKd is “below the threshold”.

Target: SCRIB_2, Q14160
Sequence (Q14160 857-960): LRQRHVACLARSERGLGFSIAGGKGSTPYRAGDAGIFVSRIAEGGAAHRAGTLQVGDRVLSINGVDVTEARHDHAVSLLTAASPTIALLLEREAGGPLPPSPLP
Experiment: holdup assay
Design: key: below the threshold = too weak to quantify, mostly under pKd 3.1 to 4
Conditions: plain residues with an end cap or a label only (N-terminal biotin on a linker: ado-ado)

With PTPDLPQTRV [KLHDC7A, Q5VTJ3] as the binder, how does the pKd read?
The pKd was 3.48.

Target: NHERF4_2, Q86UT5
Sequence (Q86UT5 220-308): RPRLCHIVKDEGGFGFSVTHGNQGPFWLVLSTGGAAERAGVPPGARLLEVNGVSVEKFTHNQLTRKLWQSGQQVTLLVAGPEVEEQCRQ
Experiment: holdup assay
Design: key: below the threshold = too weak to quantify, mostly under pKd 3.1 to 4
Conditions: plain residues with an end cap or a label only (N-terminal biotin on a linker: ado-ado)

Which pKd does the source give for PTPDLPQTRV [KLHDC7A, Q5VTJ3] here?
The pKd was “below the threshold”.

Target: DLG4_1, P78352
Sequence (P78352 62-152): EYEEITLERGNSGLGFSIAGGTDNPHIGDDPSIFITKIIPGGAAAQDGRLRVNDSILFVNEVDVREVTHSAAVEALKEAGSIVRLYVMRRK
Experiment: holdup assay
Design: key: below the threshold = too weak to quantify, mostly under pKd 3.1 to 4
Conditions: plain residues with an end cap or a label only (N-terminal biotin on a linker: ado-ado)

How did the pKd turn out when PTPDLPQTRV [KLHDC7A, Q5VTJ3] was run?
Its pKd is “below the threshold”.

Target: IL16_1, Q14005
Sequence (Q14005 210-306): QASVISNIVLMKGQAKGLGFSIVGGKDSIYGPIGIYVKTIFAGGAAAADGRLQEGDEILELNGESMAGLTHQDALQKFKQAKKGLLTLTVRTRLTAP
Experiment: holdup assay
Design: key: below the threshold = too weak to quantify, mostly under pKd 3.1 to 4
Conditions: plain residues with an end cap or a label only (N-terminal biotin on a linker: ado-ado)

For PTPDLPQTRV [KLHDC7A, Q5VTJ3], which pKd is on record?
Its pKd is 3.59.

Target: MAGI2_3, Q86UL8
Sequence (Q86UL8 600-682): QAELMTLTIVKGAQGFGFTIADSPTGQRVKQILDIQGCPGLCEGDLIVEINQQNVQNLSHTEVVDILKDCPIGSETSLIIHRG
Experiment: holdup assay
Design: key: below the threshold = too weak to quantify, mostly under pKd 3.1 to 4
Conditions: plain residues with an end cap or a label only (N-terminal biotin on a linker: ado-ado)

Which pKd does the source give for PTPDLPQTRV [KLHDC7A, Q5VTJ3] here?
Its pKd is 3.77.

Target: T5, PDZD2_2, O15018
T5 sequence (O15018 329-429, limits assumed, looked up): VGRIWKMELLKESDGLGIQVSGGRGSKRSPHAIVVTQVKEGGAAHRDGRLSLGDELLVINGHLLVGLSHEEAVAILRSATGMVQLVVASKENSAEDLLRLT
Experiment: holdup assay
Design: key: below the threshold = too weak to quantify, mostly under pKd 3.1 to 4
Conditions: plain residues with an end cap or a label only (N-terminal biotin on a linker: ado-ado)

PTPDLPQTRV [KLHDC7A, Q5VTJ3] was tested. Which pKd did it give?
The pKd was 3.75.

Target: LDB3, O75112
Sequence (O75112 1-94): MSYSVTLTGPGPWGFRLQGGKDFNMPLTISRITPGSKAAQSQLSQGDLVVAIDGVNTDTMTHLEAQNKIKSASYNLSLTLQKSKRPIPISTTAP
Experiment: holdup assay
Design: key: below the threshold = too weak to quantify, mostly under pKd 3.1 to 4
Conditions: plain residues with an end cap or a label only (N-terminal biotin on a linker: ado-ado)

Which pKd does the source give for PTPDLPQTRV [KLHDC7A, Q5VTJ3] here?
Its pKd is “below the threshold”.

Target: Inadl_4, Q8NI35
Sequence (Q8NI35 547-651): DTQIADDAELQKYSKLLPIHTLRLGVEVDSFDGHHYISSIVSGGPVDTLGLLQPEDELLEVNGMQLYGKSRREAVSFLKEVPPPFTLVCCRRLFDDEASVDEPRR
Experiment: holdup assay
Design: key: below the threshold = too weak to quantify, mostly under pKd 3.1 to 4
Conditions: plain residues with an end cap or a label only (N-terminal biotin on a linker: ado-ado)

Which pKd does the source give for PTPDLPQTRV [KLHDC7A, Q5VTJ3] here?
Its pKd is “below the threshold”.

Target: NHERF2_2, Q15599
Sequence (Q15599 142-238): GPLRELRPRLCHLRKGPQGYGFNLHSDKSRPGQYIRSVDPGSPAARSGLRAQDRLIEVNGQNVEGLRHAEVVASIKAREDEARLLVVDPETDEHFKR
Experiment: holdup assay
Design: key: below the threshold = too weak to quantify, mostly under pKd 3.1 to 4
Conditions: plain residues with an end cap or a label only (N-terminal biotin on a linker: ado-ado)

Which pKd does the source give for PTPDLPQTRV [KLHDC7A, Q5VTJ3] here?
The pKd was “below the threshold”.

Target: MAST2, Q6P0Q8
Sequence (Q6P0Q8 1099-1202): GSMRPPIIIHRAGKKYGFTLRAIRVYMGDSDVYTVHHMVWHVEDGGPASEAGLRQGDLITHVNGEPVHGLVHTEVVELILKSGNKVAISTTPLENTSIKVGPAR
Experiment: holdup assay
Design: key: below the threshold = too weak to quantify, mostly under pKd 3.1 to 4
Conditions: plain residues with an end cap or a label only (N-terminal biotin on a linker: ado-ado)

With PTPDLPQTRV [KLHDC7A, Q5VTJ3] as the binder, how does the pKd read?
Its pKd is 5.2.

Target: T6, NHERF3_1, Q5T2W1
T6 sequence (Q5T2W1 4-100, limits assumed, looked up): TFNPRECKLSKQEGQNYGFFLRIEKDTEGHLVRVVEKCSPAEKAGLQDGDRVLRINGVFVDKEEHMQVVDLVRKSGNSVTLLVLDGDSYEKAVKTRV
Experiment: holdup assay
Design: key: below the threshold = too weak to quantify, mostly under pKd 3.1 to 4
Conditions: plain residues with an end cap or a label only (N-terminal biotin on a linker: ado-ado)

With PTPDLPQTRV [KLHDC7A, Q5VTJ3] as the binder, how does the pKd read?
Its pKd is 4.36.

Target: GRIP2_3, Q9C0E4
Sequence (Q9C0E4 238-339): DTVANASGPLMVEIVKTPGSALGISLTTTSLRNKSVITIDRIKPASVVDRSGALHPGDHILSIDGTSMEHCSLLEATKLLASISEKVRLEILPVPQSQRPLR
Experiment: holdup assay
Design: key: below the threshold = too weak to quantify, mostly under pKd 3.1 to 4
Conditions: plain residues with an end cap or a label only (N-terminal biotin on a linker: ado-ado)

PTPDLPQTRV [KLHDC7A, Q5VTJ3] was tested. Which pKd did it give?
The pKd was “below the threshold”.

Target: GRID2IP_2, A4D2P6
Sequence (A4D2P6 272-370): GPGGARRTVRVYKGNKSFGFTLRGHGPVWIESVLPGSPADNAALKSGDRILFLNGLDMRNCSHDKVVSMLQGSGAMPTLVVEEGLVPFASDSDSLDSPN
Experiment: holdup assay
Design: key: below the threshold = too weak to quantify, mostly under pKd 3.1 to 4
Conditions: plain residues with an end cap or a label only (N-terminal biotin on a linker: ado-ado)

For PTPDLPQTRV [KLHDC7A, Q5VTJ3], which pKd is on record?
Its pKd is 4.26.

Target: GRIP2_5, Q9C0E4
Sequence (Q9C0E4 544-642): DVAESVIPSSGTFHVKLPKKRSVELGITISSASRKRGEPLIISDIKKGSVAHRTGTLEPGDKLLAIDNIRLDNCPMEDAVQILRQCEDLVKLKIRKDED
Experiment: holdup assay
Design: key: below the threshold = too weak to quantify, mostly under pKd 3.1 to 4
Conditions: plain residues with an end cap or a label only (N-terminal biotin on a linker: ado-ado)

With PTPDLPQTRV [KLHDC7A, Q5VTJ3] as the binder, how does the pKd read?
The pKd was “below the threshold”.

Target: T7, APBA1_2, Q02410
T7 sequence (Q02410 742-832, limits assumed, looked up): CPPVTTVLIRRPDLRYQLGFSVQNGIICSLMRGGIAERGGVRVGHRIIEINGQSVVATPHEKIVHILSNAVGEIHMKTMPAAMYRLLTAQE
Experiment: holdup assay
Design: key: below the threshold = too weak to quantify, mostly under pKd 3.1 to 4
Conditions: plain residues with an end cap or a label only (N-terminal biotin on a linker: ado-ado)

With PTPDLPQTRV [KLHDC7A, Q5VTJ3] as the binder, how does the pKd read?
The pKd was 3.54.

Target: T8, MPP7, Q5T2T1
T8 sequence (Q5T2T1 134-230, limits assumed, looked up): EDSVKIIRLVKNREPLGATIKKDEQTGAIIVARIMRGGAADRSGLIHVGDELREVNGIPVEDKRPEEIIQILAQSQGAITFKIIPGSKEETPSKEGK
Experiment: holdup assay
Design: key: below the threshold = too weak to quantify, mostly under pKd 3.1 to 4
Conditions: plain residues with an end cap or a label only (N-terminal biotin on a linker: ado-ado)

PTPDLPQTRV [KLHDC7A, Q5VTJ3] was tested. Which pKd did it give?
The pKd was “below the threshold”.

Target: T9, APBA1_1, Q02410
T9 sequence (Q02410 651-752, limits assumed, looked up): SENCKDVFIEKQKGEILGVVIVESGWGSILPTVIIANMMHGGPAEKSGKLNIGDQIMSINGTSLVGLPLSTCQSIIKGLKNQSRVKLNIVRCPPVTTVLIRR
Experiment: holdup assay
Design: key: below the threshold = too weak to quantify, mostly under pKd 3.1 to 4
Conditions: plain residues with an end cap or a label only (N-terminal biotin on a linker: ado-ado)

For PTPDLPQTRV [KLHDC7A, Q5VTJ3], which pKd is on record?
The pKd was “below the threshold”.

Target: NOS1, P29475
Sequence (P29475 9-101): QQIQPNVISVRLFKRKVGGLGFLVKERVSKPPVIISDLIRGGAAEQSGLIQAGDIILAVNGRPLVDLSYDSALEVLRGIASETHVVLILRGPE
Experiment: holdup assay
Design: key: below the threshold = too weak to quantify, mostly under pKd 3.1 to 4
Conditions: plain residues with an end cap or a label only (N-terminal biotin on a linker: ado-ado)

How did the pKd turn out when PTPDLPQTRV [KLHDC7A, Q5VTJ3] was run?
The pKd was “below the threshold”.

Target: NHERF4_4, Q86UT5
Sequence (Q86UT5 464-550): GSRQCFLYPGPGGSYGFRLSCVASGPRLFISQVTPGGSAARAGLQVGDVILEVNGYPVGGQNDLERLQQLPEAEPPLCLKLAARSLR
Experiment: holdup assay
Design: key: below the threshold = too weak to quantify, mostly under pKd 3.1 to 4
Conditions: plain residues with an end cap or a label only (N-terminal biotin on a linker: ado-ado)

For PTPDLPQTRV [KLHDC7A, Q5VTJ3], which pKd is on record?
Its pKd is “below the threshold”.

Target: MAGI1_1, Q96QZ7
Sequence (Q96QZ7 1-106): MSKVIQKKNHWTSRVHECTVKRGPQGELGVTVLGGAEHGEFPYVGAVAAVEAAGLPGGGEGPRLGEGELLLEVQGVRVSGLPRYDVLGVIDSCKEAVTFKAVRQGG
Experiment: holdup assay
Design: key: below the threshold = too weak to quantify, mostly under pKd 3.1 to 4
Conditions: plain residues with an end cap or a label only (N-terminal biotin on a linker: ado-ado)

For PTPDLPQTRV [KLHDC7A, Q5VTJ3], which pKd is on record?
Its pKd is “below the threshold”.

Target: T10, TX1BP3, O14907
T10 sequence (O14907 10-122, limits assumed, looked up): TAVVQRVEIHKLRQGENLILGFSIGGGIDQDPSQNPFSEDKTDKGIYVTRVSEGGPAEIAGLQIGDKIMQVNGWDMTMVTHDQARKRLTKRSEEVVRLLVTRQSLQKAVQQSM
Experiment: holdup assay
Design: key: below the threshold = too weak to quantify, mostly under pKd 3.1 to 4
Conditions: plain residues with an end cap or a label only (N-terminal biotin on a linker: ado-ado)

PTPDLPQTRV [KLHDC7A, Q5VTJ3] was tested. Which pKd did it give?
The pKd was “below the threshold”.
